Laboratory results taken from US20160159929A1 (ABLBIO, published 2016).

Legend:
[1] = molecular target: T1, human DLL4 protein (R&D Systems, Cat: 1506-D4/CF), extracellular domain, residues 27 to 524, C-terminal … (human, UniProt Q9NR61 27-524); experiment: competition ELISA: antibody premixed with human DLL4-His (600 ng/ml), transferred to plate-coated hNotch-1-hFc, bound DLL4 detected with anti-His HRP
T1 construct: range 27-524; Bought protein; also called rhDLL4; hDLL4
Protocol: The neutralization effect of the Avastin-DLL4 BsAb dual-targeting antibody was assessed using an ELISA-based solution competition assay. Specifically, each well of a 96-well microtiter plate (Nunc-Immuno Plate, NUNC, Rochester, N.Y.) was coated with 100 μl of 500 ng/ml of hNotch-1-hFc protein (R&D Systems) (diluted in PBS) at 4° C. overnight, and then treated with BSA for 2 hours to block non-specific binding sites.
The Avastin-DLL4 BsAb dual-targeting antibody (purified protein) on the 96-well microtiter plate was premixed with serial dilutions of antigen protein (human DLL4-His, 600 ng/ml) at an […] concentration ranging from 0 nM to 140 nM. The antigen/antibody mixture was incubated for 30 minutes, and then transferred to a microtiter plate precoated with the DLL4 receptor hNotch-1 protein (50 ng/well) in order to measure free […]. Then, the plate was incubated for 2 hours and washed five times with 0.05% tween 20-containing PBS. In order to detect the DLL4 antigen bound to the plate, an HRP-conjugated His […] antibody reagent (Roche applied science) was diluted at a ratio of 1:800, and the washed microtiter plate was treated with the diluted antibody reagent, and then allowed to react at 37° C. for 1 hour. […]

[2] = molecular target: T2, human VEGF (hVEGF, R&D Systems, cat: 293-VE) (human, UniProt P15692-4 27-191); experiment: ELISA on plate-coated hVEGF, HRP anti-Fab detection, absorbance at 450 nm; the value is column C (midpoint) of the printed 4-P fit y = (A - D)/(1 + (x/C)^B) + D; preparation labelled Transient; the Conc axis prints no unit, nM is taken from paragraph 139 (dilutions from 128 nM and 64 nM)
T2 construct: Bought protein; also called vascular endothelial growth factor
T2 sequence (P15692 other isoform, or with tags, fused parts or gaps limits assumed): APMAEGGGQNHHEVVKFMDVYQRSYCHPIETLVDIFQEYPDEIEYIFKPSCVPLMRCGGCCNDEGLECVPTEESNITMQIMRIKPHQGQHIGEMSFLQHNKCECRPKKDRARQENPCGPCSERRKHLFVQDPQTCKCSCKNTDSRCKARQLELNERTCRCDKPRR
Protocol: (§1) The binding affinities of the dual-targeting proteins for DLL4 and VEGF were assessed using an ELISA-based solution competition assay. Specifically, a 96-well plate (Nunc-Immuno Plate, NUNC, Rochester, N.Y.) was coated with 50 ng/ml of hVEGF (R&D Systems, cat: 293-VE) and 200 ng/ml of rhDLL4 (R&D Systems, cat: 1506-D4/CF) in an amount of 100 μl per well at 4° C. overnight, and non-specific binding sites were blocked with BSA (bovine serum albumin) for 2 hours. The antibody on the 96-well microtiter plate was diluted 1/5-fold from 128 nM and 64 nM, and 100 μl of each of the dilutions was added to each well of the plate coated with hDLL4 and hVEGF proteins. Then, the plate was incubated for 2 hours, and washed five times with 0.05% tween 20-containing PBS. In order to detect the plate-bound antibody, an HRP-conjugated anti-Fab antibody (Pierce, cat: 31414)) was diluted at a ratio of 1:40,000, transferred to the washed 96-well microtiter plate, and then allowed to react at 37° C. for 1 hour. After the reaction, color development was performed using a colorimetric substrate (3,3′,5,5′-tetramethylbenzidine; Sigma-Aldrich). The enzymatic reaction was stopped using 0.5 mol/l of sulfuric acid. The absorbance at 450 nm was measured using SpectraMax 190 (molecular device).

[3] = molecular target: T2, human VEGF (hVEGF, R&D Systems, cat: …); experiment: ELISA on plate-coated hVEGF, HRP anti-Fab detection, absorbance at 450 nm; the value is column C (midpoint) of the printed 4-P fit; preparation labelled (GS pool) cell line; the Conc axis prints no unit, nM is taken from paragraph 139
Protocol: as §1

[4] = molecular target: T1, human DLL4 protein (R&D Systems, Cat: …); experiment: ELISA on plate-coated rhDLL4, HRP anti-Fab detection, absorbance at 450 nm; the value is column C (midpoint) of the printed 4-P fit; preparation labelled Transient; the Conc axis prints no unit, nM is taken from paragraph 139
Protocol: as §1

[5] = molecular target: T1, human DLL4 protein (R&D Systems, Cat: …); experiment: SPR (Biacore T200), hDLL4 immobilised on CM5, antibody as analyte, bivalent binding model
Protocol: (§2) Specifically, Biacore T200 was used in SPR analysis and HBS-EP (10 mM HEPES, pH7.4, 150 mM NaCl, 3 mM EDTA, […] surfactant P20) was used as a running buffer. Surface preparation was done by using a surface preparation target immobilization tool of a wizard program (condition: 25° C., 5 μl/min). Ligands (hVEGF and hDLL4) were diluted in 10 mM sodium acetate buffer (pH 4.5) to final concentrations of 5 μg/ml and 4 μg/ml, respectively, and then immobilized to the surface of CM5 chip by a target immobilization level for each test group. In the immobilization process, two flow cells were included as one set wherein the first and third flow cells were set as a blank, the second flow cell has hVEGF immobilized to the surface thereof, and the fourth flow cell was set as hDLL4 in the present experiment. The first and third flow cells acted as a reference to account for experimental variability due to nonspecific bindings and buffer effects, and in the analysis, subtracted RU values (Fc2−Fc1, and Fc4−Fc3) were used as experimental results. The Avastin-DLL4 BsAb dual-targeting antibody that binds to hVEGF and hDLL4 was diluted in a running buffer to a final molar concentration of 100 nM, serially diluted 1/2 times, and each of the 5 dilutions was analyzed. The sample to be analyzed was prepared to have high purity and high concentration, enough to be diluted more than 100 times at minimum, thereby minimizing buffer effect. All analysis was done by using a wizard program, screening duplicates for each sample and a regeneration step was included in between each analysis step, so that the standard of experiment remains constant.
(§3) The experimental results were analyzed by Biaevaluation software version 4.0. At this time, to determine the RU values (Fc2−Fc1 and Fc4−Fc3), the baseline was set to zero, the value measured at a buffer injection part (analyte, 0 nM) was subtracted from a whole sensorgram. Then, the resulting RU value was analyzed by a Bivalent binding model to determine a binding affinity. The factors to be analyzed include kₐ (M⁻¹s⁻¹), kd (s⁻¹), and KD (M).

[6] = molecular target: T2, human VEGF (hVEGF, R&D Systems, cat: …); experiment: SPR (Biacore T200), hVEGF immobilised on CM5, antibody as analyte, bivalent binding model
Protocol: as §2, §3

[7] = molecular target: T1, human DLL4 protein (R&D Systems, Cat: …); experiment: ELISA on plate-coated rhDLL4, HRP anti-Fab detection, absorbance at 450 nm; the value is column C (midpoint) of the printed 4-P fit; preparation labelled (GS pool) cell line; the Conc axis prints no unit, nM is taken from paragraph 139
Protocol: as §1

[8] = molecular target: T3, human DLL4 (27-251)-Fc alanine substitution mutant at position 64 (histidine) (human, UniProt Q9NR61 27-251); experiment: Western blot of mutant DLL4 (27-251)-Fc, detected with HRP anti-human Fab
T3 construct: range 27-251; also called amino acid mutant at position 64; not shown: Fc protein
T3 sequence (Q9NR61 other isoform, or with tags, fused parts or gaps mutant limits assumed): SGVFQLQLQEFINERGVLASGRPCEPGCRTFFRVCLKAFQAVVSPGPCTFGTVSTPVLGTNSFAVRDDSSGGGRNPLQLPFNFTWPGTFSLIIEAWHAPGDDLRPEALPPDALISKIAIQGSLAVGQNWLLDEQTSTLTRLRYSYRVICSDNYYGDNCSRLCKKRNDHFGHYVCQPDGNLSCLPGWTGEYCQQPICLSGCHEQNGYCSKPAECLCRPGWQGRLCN
Protocol: The mutant expression media incubated for 4 days were centrifuged at 1000 rpm at room temperature for 10 minutes to remove the suspended material, and then filtered through a 0.45-μm syringe. For Western blotting analysis, the level of the protein in the mutant expression media were quantified using Octet® system (ForteBio) so that a uniform amount of the mutant would be loaded on SDS gel. Next, 20 μl of each of the mutant expression media was loaded on each of two Novex 4-12% Bis/Tris gels, and subjected to gel electrophoresis using MOPS buffer at 140 V for 50 minutes. As a control, a protein encoding a deletion fragment (amino acid residues 27 to 251) of the extracellular domain of wild-type DLL4 was used. After completion of the electrophoresis, the protein band was transferred to a polyvinylidene difluoride membrane. A total of two processes were performed.

T1 sequence (Q9NR61 other isoform, or with tags, fused parts or gaps limits assumed): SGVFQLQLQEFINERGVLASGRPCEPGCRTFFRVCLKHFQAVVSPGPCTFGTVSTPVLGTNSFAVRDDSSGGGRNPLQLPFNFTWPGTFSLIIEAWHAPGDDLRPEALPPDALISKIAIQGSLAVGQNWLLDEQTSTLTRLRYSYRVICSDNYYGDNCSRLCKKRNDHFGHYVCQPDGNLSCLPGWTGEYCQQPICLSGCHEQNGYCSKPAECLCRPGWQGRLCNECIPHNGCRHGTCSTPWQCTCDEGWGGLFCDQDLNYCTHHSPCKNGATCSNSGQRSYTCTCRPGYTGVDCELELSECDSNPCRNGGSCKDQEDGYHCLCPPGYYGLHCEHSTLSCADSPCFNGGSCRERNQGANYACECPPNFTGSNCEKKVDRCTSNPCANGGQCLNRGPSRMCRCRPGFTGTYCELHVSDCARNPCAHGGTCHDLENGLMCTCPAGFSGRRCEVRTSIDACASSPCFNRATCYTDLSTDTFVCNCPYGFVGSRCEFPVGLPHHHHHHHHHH

B1: Avastin-DLL4 BsAb dual-targeting antibody (bispecific antibody)
heavy: EVQLVESGGGLVQPGGSLRLSCAASGYTFTNYGMNWVRQAPGKGLEWVGWINTYTGEPTYAADFKRRFTFSLDTSKSTAYLQMNSLRAEDTAVYYCAKYPHYYGSSHWYFDVWGQGTLVTVSSASTKGPSVFPLAPSSKSTSGGTAALGCLVKDVFPEPVTVSWNSGALTSGVHTFPAVLQSSGLYSLSSVVTVPSSSLGTQTYICNVNHKPSNTKVDKKVEPKSCDKTHTCPPCPAPELLGGPSYFLFPPKPKDTLMISRTPEVTCVVVDVSHEDPEVKFNWYVDGVEVHNAKTKPREEQYNSTYRVVSVLTVLHQDWLNGKEYKCKVSNKALPAPIEKTISKAKGQPREPQVYTLPPSRHMTKNQVSLTCLVKGFYPSDIAVEWESNGQPENNYKTTPPVLDSDGSFFLYSKLTVDKSRWQQGNVFSCSVMHEALHNHYTQKSLSLSPGKGGGGSGGGGSGGGGSQSVLTQPPSASGTPGQRVTISCTGSSSNIGSNDVTWYQQLPGTAPKLLIYADSKRPSGVPDRFSGSKSGTSASLAISGLRSEDEADYYCGTWDYSLSAYVFGCGTKLTVLGGGGSGGGGSGGGGSGGGGSEVQLLESGGGLVQPGGSLRLSCAASGFTFSDYAMSWVRQAPGKCLEWVSWIYSGSGNKYYADSVKGRFTISRDNSKNTLYLQMNSLRAEDTAVYYCARADWPFDYWGQGTLVTVSS
light: not shown
notes: made in CHO cells; also called VEGF-DLL4 BsAb; dual-targeting protein
Q: Which IC50 [1] does the source give for B1 here?
A: Its IC50 is 1.12 nM.

Q: And the EC50 [2]?
A: Its EC50 is 0.337 nM.

Q: And the EC50 [3]?
A: Its EC50 is 0.43 nM.

Q: And the EC50 [4]?
A: Its EC50 is 0.264 nM.

Q: What about the Kd [5] of the same binder?
A: The Kd was 30.2 nM.

Q: What about the koff [5] of the same binder?
A: Its koff is 0.000587 s⁻¹.

Q: What about the kon [5] of the same binder?
A: Its kon is 19400 M⁻¹ s⁻¹.

Q: And the Kd [6]?
A: The Kd was 0.126 nM.

Q: What about the koff [6] of the same binder?
A: The koff was 1.68e-06 s⁻¹.

Q: And the kon [6]?
A: The kon was 13400 M⁻¹ s⁻¹.

Q: What about the EC50 [7] of the same binder?
A: The EC50 was 0.261 nM.

B2: MLCK-2 anti-DLL4 antibody (antibody, V domains shown)
VH: EVQLLESGGGLVQPGGSLRLSCAASGFTFSDYAMSWVRQAPGKCLEWVSWIYSGSGNKYYADSVKGRFTISRDNSKNTLYLQMNSLRAEDTAVYYCARADWPFDYWGQGTLVTVSS
VL: QSVLTQPPSASGTPGQRVTISCTGSSSNIGSNDVTWYQQLPGTAPKLLIYADSKRPSGVPDRFSGSKSGTSASLAISGLRSEDEADYYCGTWDYSLSAYVFGCGTKLTVL
notes: also called MLCK2 antibody
Q: Does B2 bind [8]?
A: Result: no binding (tested: 1 µg/mL)
